Bridge positions count the residues as written; N and C are the ends. * marks the point of attachment. Hexanoyl = CCCCCC(=O)*
T1: Cathepsin F (Homo sapiens (Human)) (UniProt Q9UBX1)
T1 sequence: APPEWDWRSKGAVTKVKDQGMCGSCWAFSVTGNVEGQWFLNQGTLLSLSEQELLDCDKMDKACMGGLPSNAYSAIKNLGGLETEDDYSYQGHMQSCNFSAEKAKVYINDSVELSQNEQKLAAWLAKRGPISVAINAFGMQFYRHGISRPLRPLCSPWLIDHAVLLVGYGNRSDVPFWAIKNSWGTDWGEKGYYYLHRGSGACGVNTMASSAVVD

B1: alpha -dendrotoxin (protein)
chain: QPRRKLCILHRNPGRCYDKIPAFYYNQKKKQCERFDWSGCGGNSNRFKTIEECRRTCIG
B2: Cystatin C (protein)
chain: SSPGKPPRLVGGPMDASVEEEGVRRALDFAVGEYNKASNDMYHSRALQVVRARKQIVAGVNYFLDVELGRTTCTKTQPNLDNCPFHDQPHLKRKAFCSFQIYAVPWQGTMTLSKSTCQDA
B3: Hex-[Cys(tMeBn(EuDOTA-AET))-Pro-Pro-Thr-Gln-Phe-Cys]-OH (3BP-3662) (peptide)
peptide: CPPTQFC
modifications: here or on the partner: N-terminal hexanoyl (Hex); Cys1 and Cys7 cyclised through tMeBn carrying EuDOTA-AET (europium complex); free C-terminal acid (-OH)
B4: Hex-[Cys(tMeBn(GaDOTA-AET))-Pro-Pro-Thr-Gln-Phe-Cys]-OH (3BP-3949) (peptide)
peptide: CPPTQFC
modifications: here or on the partner: N-terminal hexanoyl (Hex); Cys1 and Cys7 cyclised through tMeBn carrying GaDOTA-AET (gallium complex); free C-terminal acid (-OH)
B5: Hex-[Cys-(tMeBn(CuDOTA-AET))-Pro-Pro-Thr-Gln-Phe-Cys]-OH (3BP-4293) (peptide)
peptide: CPPTQFC
modifications: here or on the partner: N-terminal hexanoyl (Hex); Cys1 and Cys7 cyclised through tMeBn carrying CuDOTA-AET (copper(II) complex); free C-terminal acid (-OH)
B6: Hex-[Cys-(tMeBn(ZnDOTA-AET))-Pro-Pro-Thr-Gln-Phe-Cys]-OH (3BP-4343) (peptide)
peptide: Hexanoyl-CPPTQFC-OH
modifications: bridge 1-7; not fully specified (bridges); printed as Hex-[Cys-(tMeBn(ZnDOTA-AET))-Pro-Pro-Thr-Gln-Phe-Cys]-OH; also: zinc complex (ZnDOTA) of 3BP-3554
B7: Hex-[Cys(tMeBn(InDOTA-AET))-Pro-Pro-Thr-Gln-Phe-Cys]-OH (3BP-3623) (peptide)
peptide: CPPTQFC
modifications: here or on the partner: N-terminal hexanoyl (Hex); Cys1 and Cys7 cyclised through tMeBn carrying InDOTA-AET (indium complex); free C-terminal acid (-OH)
B8: Hex-[Cys(tMeBn(LuDOTA-AET))-Pro-Pro-Thr-Gln-Phe-Cys]-OH (3BP-3624) (peptide)
peptide: CPPTQFC
modifications: here or on the partner: N-terminal hexanoyl (Hex); Cys1 and Cys7 cyclised through tMeBn carrying LuDOTA-AET (lutetium complex); free C-terminal acid (-OH)
B9: Hex-[Cys(tMeBn(InDOTA-PP))-Pro-Pro-Thr-Gln-Phe-Cys]-Asp-NH2 (3BP-3590) (peptide)
peptide: CPPTQFCD
modifications: N-terminal hexanoyl (Hex); Cys1 and Cys7 cyclised through tMeBn carrying InDOTA-PP (indium complex); C-terminal amide
B10: Hex-[Cys(tMeBn(LuDOTA-PP))-Pro-Pro-Thr-Gln-Phe-Cys]-Asp-NH2 (3BP-3591) (peptide)
peptide: CPPTQFCD
modifications: N-terminal hexanoyl (Hex); Cys1 and Cys7 cyclised through tMeBn carrying LuDOTA-PP (lutetium complex); C-terminal amide
B11: Hex-[Cys(tMeBn(GaDOTA-PP))-Pro-Pro-Thr-Gln-Phe-Cys]-Asp-NH2 (3BP-3592) (peptide)
peptide: CPPTQFCD
modifications: N-terminal hexanoyl (Hex); Cys1 and Cys7 cyclised through tMeBn carrying GaDOTA-PP (gallium complex); C-terminal amide
B12: Hex-[Cys(tMeBn(EuDOTA-PP))-Pro-Pro-Thr-Gln-Phe-Cys]-Asp-NH2 (3BP-3661) (peptide)
peptide: CPPTQFCD
modifications: N-terminal hexanoyl (Hex); Cys1 and Cys7 cyclised through tMeBn carrying EuDOTA-PP (europium complex); C-terminal amide

Biological target: KV channel
Assay: radioligand displacement, reference compound of the assay (Ki Ref)
Settings: not given

Q: How did the Ki turn out when B1 was run?
A: 0.097 nM

Biological target: T1, Cathepsin F (Homo sapiens (Human))
Assay: not given
Settings: not given

Q: For B2, which Percentage inhibition (%), Reference (% inhibition at 1 µM) is on record?
A: 74

Biological target: human fibroblast activation protein (FAP) on human WI-38 fibroblasts (human)
Assay: competitive FACS binding on FAP-expressing WI-38 cells against 3 nM Cy5-labeled compound; category A = pIC50 values >8.0
Settings: remark: other sources report otherwise

Q: Which pIC50 Category (FACS) does the source give for B3 here?
A: > 8 pIC50

Q: Which pIC50 Category (FACS) does the source give for B4 here?
A: > 8 pIC50

Q: For B5, which pIC50 Category (FACS) is on record?
A: > 8 pIC50

Q: Which pIC50 Category (FACS) does the source give for B6 here?
A: > 8 pIC50

Q: How did the pIC50 Category (FACS) turn out when B7 was run?
A: > 8 pIC50

Q: With B8 as the binder, how does the pIC50 Category (FACS) read?
A: > 8 pIC50

Biological target: Recombinant human FAP (R&D systems, #3715-SE) (human)
Sequence (chain, as listed by the source limits assumed): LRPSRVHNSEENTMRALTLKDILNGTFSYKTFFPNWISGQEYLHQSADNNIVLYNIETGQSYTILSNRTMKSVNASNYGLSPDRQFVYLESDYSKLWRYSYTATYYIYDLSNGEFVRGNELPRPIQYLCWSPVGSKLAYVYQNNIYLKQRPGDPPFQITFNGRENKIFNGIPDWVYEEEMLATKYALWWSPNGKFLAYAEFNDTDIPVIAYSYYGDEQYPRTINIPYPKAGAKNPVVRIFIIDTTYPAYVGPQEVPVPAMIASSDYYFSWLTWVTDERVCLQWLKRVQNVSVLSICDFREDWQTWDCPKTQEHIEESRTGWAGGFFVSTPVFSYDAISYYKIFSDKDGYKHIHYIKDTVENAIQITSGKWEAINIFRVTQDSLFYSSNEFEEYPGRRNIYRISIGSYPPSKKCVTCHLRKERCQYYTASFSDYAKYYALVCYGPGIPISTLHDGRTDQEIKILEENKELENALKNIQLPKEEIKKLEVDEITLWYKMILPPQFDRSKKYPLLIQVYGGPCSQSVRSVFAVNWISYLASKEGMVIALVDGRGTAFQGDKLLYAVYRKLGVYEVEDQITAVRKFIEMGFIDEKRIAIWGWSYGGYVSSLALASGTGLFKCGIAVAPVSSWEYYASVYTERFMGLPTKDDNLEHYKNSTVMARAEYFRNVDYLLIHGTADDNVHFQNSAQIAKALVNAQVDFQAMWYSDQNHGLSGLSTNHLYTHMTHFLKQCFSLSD
Assay: not given
Settings: not given

Q: B9 was tested. Which pIC50 Category (Activity) did it give?
A: > 8 pIC50

Q: How did the pIC50 Category (Activity) turn out when B10 was run?
A: > 8 pIC50

Q: How did the pIC50 Category (Activity) turn out when B11 was run?
A: > 8 pIC50

Q: For B12, which pIC50 Category (Activity) is on record?
A: > 8 pIC50

From US12427210B2, “Compounds comprising a fibroblast activation protein ligand and use thereof” (priority 2019, dated 2025)
